The results in this text go back to patent publication US20250188184A1 (published 2025).

In assay [1] the target is T1, cynomolgus monkey PSMA (cynomolgus monkey, UniProt A0A2K5VNZ0 44-750).
T1 construct: also called cyPSMA; cyno PSMA
Description: Octet, uTCE. Background: Biolayer interferometry detects binding as a change in optical thickness at a sensor tip.

Assay [2] addresses T2, human PSMA (human, UniProt Q04609 44-750, limits assumed).
T2 construct: other Octet runs used human PSMA-Fc; also called huPSMA; prostate-specific membrane antigen
The assay can be described thus: Octet, uTCE.

Assay [3] addresses T3, human CD3 epsilon (human, UniProt P07766 23-126, limits assumed).
T3 construct: also called huCD3e
The assay can be described thus: Octet, uTCE.

Assay [4] deals with T4, cynomolgus CD3 epsilon (cynomolgus monkey, UniProt Q95LI5 22-117, limits assumed).
T4 construct: also called cyCD3e
T4 sequence (looked up): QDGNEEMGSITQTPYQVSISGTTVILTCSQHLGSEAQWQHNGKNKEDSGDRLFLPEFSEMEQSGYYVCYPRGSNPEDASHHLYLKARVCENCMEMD
The assay can be described thus: Octet, uTCE.

Assay [5] deals with T3, human CD3 epsilon. The assay can be described thus: Biacore, uTCE. Background: In SPR one partner is held on a chip, and binding of the other changes the refractive index at the surface.
Assay [6] concerns the target T4, cynomolgus CD3 epsilon. The assay can be described thus: Biacore, uTCE.
Assay [7] addresses T1, cynomolgus monkey PSMA. Description: Biacore, uTCE.
The target of assay [8] is T2, human PSMA. Description: Biacore, uTCE.
Assay [9] deals with T3, human CD3 epsilon. Description: Octet, crude lysate. The protocol: Pool 2 consisted of paTCE molecules each containing PSMA.262 and one of 64 CD3.23 mutation combination variants. Stability and affinity of the individually expressed molecules in the form of crude lysate was evaluated by Octet. […] The binding of these anti-CD3 molecules (CD3.227, CD3.228, CD3.229 and CD3.230) to human and cynomolgus CD3 was measured by Octet and the Tₘ was measured by Differential Scanning Fluorimetry. All variants were paired with PSMA.262 except for CD3.23 which was paired with PSMA.5.

T2 sequence (Q04609 44-750 limits assumed): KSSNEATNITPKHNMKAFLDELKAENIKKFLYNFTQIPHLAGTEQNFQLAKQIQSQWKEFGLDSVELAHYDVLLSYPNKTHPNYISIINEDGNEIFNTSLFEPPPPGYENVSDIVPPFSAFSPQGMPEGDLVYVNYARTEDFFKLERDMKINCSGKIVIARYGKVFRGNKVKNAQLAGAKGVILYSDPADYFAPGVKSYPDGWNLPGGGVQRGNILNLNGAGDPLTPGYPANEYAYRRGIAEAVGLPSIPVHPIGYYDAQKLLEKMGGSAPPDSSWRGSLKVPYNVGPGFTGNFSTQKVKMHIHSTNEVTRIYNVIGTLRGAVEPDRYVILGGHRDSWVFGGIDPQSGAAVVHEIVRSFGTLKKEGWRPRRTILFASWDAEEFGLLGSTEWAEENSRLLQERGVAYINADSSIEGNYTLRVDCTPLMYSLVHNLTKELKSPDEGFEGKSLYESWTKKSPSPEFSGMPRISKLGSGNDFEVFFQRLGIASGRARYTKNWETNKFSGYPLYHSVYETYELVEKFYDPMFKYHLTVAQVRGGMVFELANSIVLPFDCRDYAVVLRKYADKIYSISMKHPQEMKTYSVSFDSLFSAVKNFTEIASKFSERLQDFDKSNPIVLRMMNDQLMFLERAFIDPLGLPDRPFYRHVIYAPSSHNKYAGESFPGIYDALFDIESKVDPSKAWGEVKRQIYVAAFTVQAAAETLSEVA
T3 sequence (P07766 23-126 limits assumed): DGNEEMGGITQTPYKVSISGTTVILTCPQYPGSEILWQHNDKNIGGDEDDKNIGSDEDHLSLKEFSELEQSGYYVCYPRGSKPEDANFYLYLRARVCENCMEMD

B1: uTCE from AC3445 (PSMA.119-CD3.23) (bispecific antibody)
chain: GTSESATPESQVQLVESGGGVVQPGRSLRLSCAASGRTFGIYVMGWVRQAPGKEREFVAAISWSGSNRKVSDSVKGRFTISRDNSKNTLYLQMNSLRAEDTAVYYCAASNRLYGRTWYDFNESDYWGQGTQVTVSSGGGGSGGGSELVVTQEPSLTVSPGGTVTLTCRSSNGAVTSSNYANWVQQKPGQAPRGLIGGTNKRAPGTPARFSGSLLGGKAALTLSGVQPEDEAVYYCALWYPNLWVFGGGTKLTVLSESATPESGPGTSPGATPESGPGTSESATPEVQLLESGGGIVQPGGSLKLSCAASGFTFNTYAMNWVRQAPGKGLEWVARIRSKYNNYATYYADSVKDRFTISRDDSKNTVYLQMNNLKTEDTAVYYCVRHENFGNSYVSWFAHWGQGTLVTVSSGTATPESGPG
notes: release-segment residues left at the ends not specified
For the molecule B1, the Kd with cynomolgus monkey PSMA [1] is 47.5 nM; with human PSMA [2], 6.2 nM; with human CD3 epsilon [3] it was 34.8 nM; in the assay with cynomolgus CD3 epsilon [4], 40 nM.

B2: uTCE from AC3928 (PSMA.350-CD3.23) (bispecific antibody)
chain: GTSESATPESQVQLVESGGGVVQPGRSLRLSCAASGRTFGIYVWGWFRQAPGKEREFVGAMSWSGSNRKVSDSVKGRFTISRDNSKNTLYLQMNSLRAEDTAVYYCAASNKEYGRTWYDFNESDYWGQGTQVTVSSGGGGSGGGSELVVTQEPSLTVSPGGTVTLTCRSSNGAVTSSNYANWVQQKPGQAPRGLIGGTNKRAPGTPARFSGSLLGGKAALTLSGVQPEDEAVYYCALWYPNLWVFGGGTKLTVLSESATPESGPGTSPGATPESGPGTSESATPEVQLLESGGGIVQPGGSLKLSCAASGFTFNTYAMNWVRQAPGKGLEWVARIRSKYNNYATYYADSVKDRFTISRDDSKNTVYLQMNNLKTEDTAVYYCVRHENFGNSYVSWFAHWGQGTLVTVSSGTATPESGPG
notes: release-segment residues left at the ends not specified; also called AMX500-P6 uTCE
With B2, the dissociation constant Kd was found to be 27.3 nM with human CD3 epsilon [5]; 26.6 nM in the assay with cynomolgus CD3 epsilon [6]; 198 nM with cynomolgus monkey PSMA [1]; 13.2 nM with human PSMA [2]; 43 nM in the assay with human CD3 epsilon [3]; 44.9 nM with cynomolgus CD3 epsilon [4]. In addition, the values for the Kd with cynomolgus monkey PSMA [7] and with human PSMA [8] were 354 nM and 19 nM, respectively.

B3: uTCE from AC3934 (PSMA.262-CD3.228) (bispecific antibody)
chain: GTSESATPESQVQLVESGGGVVQPGRSLRLSCAASGRTFGIYVWGWVRQAPGKEREFVGAISWSGSNRKVSDSVKGRFTISRDNSKNTLYLQMNSLRAEDTAVYYCAASNKLYGRTWYDFNESDYWGQGTQVTVSSGGGGSGGGSELVVTQEPSLTVSPGGTVTLTCRSSNGAVTSSNYANWVQQKPGQAPRGLIGGTNKRAPGTPARFSGSLLGGKAALTLSGVQPEDEAVYYCALWYPNLWVFGGGTKLTVLSESATPESGPGTSPGATPESGPGTSESATPEVQLVESGGGIVQPGGSLRLSCAASGFTFSTYAMNWVRQAPGKGLEWVGRIRTKRNNYATYYADSVKGRFTISRDDSKNTVYLQMNSLKTEDTAVYYCVRHENFGNSYVSWFAHWGQGTLVTVSSGTATPESGPG
notes: release-segment residues left at the ends not specified; also called AMX500-P7 uTCE
Take B3: the Kd in the assay with human CD3 epsilon [5] is 9.83 nM; with cynomolgus CD3 epsilon [6], 10.4 nM; with cynomolgus monkey PSMA [1], 13.1 nM; in the assay with human PSMA [2] it was 1.6 nM; with human CD3 epsilon [3] it was 26.6 nM; in the assay with cynomolgus CD3 epsilon [4] it was 33.7 nM. Moreover, the Kd with cynomolgus monkey PSMA [7] came out at 13 nM; in the assay with human PSMA [8], 0.5 nM.

B4: CD3.218 (AC3649) (bispecific antibody, V domains shown)
VH: EVQLVESGGGIVQPGGSLRLSCAASGFTFSTYAMNWVRQAPGKGLEWVGRIRSKYNNYATTYADSVKGRFTISRDDSKNTVYLQMNSLKTEDTAVYYCVRHENFGNSYVSWFAHWGQGTLVTVSS
VL: ELVVTQEPSLTVSPGGTVTLTCRSSNGAVTSSNYANWVQQKPGQAPRGLIGGTNKRAPGTPARFSGSLLGGKAALTLSGVQPEDEAVYYCALWYPNLWVFGGGTKLTVL
notes: paTCE with PSMA.262 VHH; crude lysate
In the case of B4, in the assay with human CD3 epsilon [9], the dissociation constant Kd turned out to be 4.4 nM.

B5: CD3.251 (AC3682) (bispecific antibody, V domains shown)
VH: EVQLVESGGGIVQPGGSLRLSCAASGFTFNTYAMNWVRQAPGKGLEWVGRIRSKRNNYATTYADSVKDRFTISRDDSKNTVYLQMNSLKTEDTAVYYCVRHENFGNSYVSWFAHWGQGTLVTVSS
VL: ELVVTQEPSLTVSPGGTVTLTCRSSNGAVTSSNYANWVQQKPGQAPRGLIGGTNKRAPGTPARFSGSLLGGKAALTLSGVQPEDEAVYYCALWYPNLWVFGGGTKLTVL
notes: as for B4
Turning to B5, the Kd in the assay with human CD3 epsilon [9] turned out to be 32.9 nM.

The Kd is the equilibrium constant for the complex coming apart.
